Among the data in article PMC6854500 are stoichiometry N values, retold here.

In experiment [1] the target is PEDV CV777 S soluble ectodomain (residues 1 to 1319) with C-terminal T4 fibritin trimerization motif (porcine epidemic diarrhea virus, strain CV777 | bacteriophage T4) (UniProt Q91AV1). The experiment in a line: SEC; Superose6 10/300 column, 2 mM Tris (pH 8.0), 200 mM NaCl, 0.02% NaN3; single symmetrical peak.
Experiment [2] has the same target. The experiment in a line: cryo-EM structure; PEDV S CV777 at 0.4 mg/ml in 2 mM Tris (pH 8.0), 200 mM NaCl, 0.02% NaN3, 0.01% Amphipol A8-35; Titan Krios 300 kV; 3.3 Å without symmetry, 3.1 Å with C3; a 10-Å reconstruction with 2 mM 3'-sialyllactose was indistinguishable.
Experiment [3] deals with dissociated PEDV CV777 S1 subunit (S1 ring) (porcine epidemic diarrhea virus, strain CV777) (UniProt Q91AV1). As to the kind of experiment: cryo-EM structure; roughly 10% of the particles of the PEDV CV777 S data set, 2D classes and a 9.4-Å reconstruction without imposed symmetry (C1).

“PEDV CV777 S soluble ectodomain (residues 1 to 1319) with C-terminal T4 fibritin trimerization motif (from UniProt Q91AV1 26-1319) (domain or fragment)”: the stoichiometry N in experiment [1] and in experiment [2] was 3 in each case.
Consider “dissociated PEDV CV777 S1 subunit (S1 ring) (from UniProt Q91AV1 26-1383) (domain or fragment)”, for which the stoichiometry N in experiment [3] was 3.
